Experimental data taken from patent US8247376B2, “NGAL for reduction and amelioration of ischemic and nephrotoxic injuries” (The Trustees of Columbia University, priority 2004, dated 2012).

Columns and labels:
[1] = test system: ischemia-reperfusion injury in mice; assay: Histopathology scoring of tubule damage (dilatation, casts, necrosis) after ischemia-reperfusion; format: in vivo; details: NGAL before, during or after ischemia, 24 h reflow, vs saline controls
Method: Purified endotoxin-free NGAL was administered either intravenously into mice via tail vein injections, subcutaneously, or intraperitoneally. In preliminary studies, animals were treated with three different concentrations of NGAL (50, 100, or 250 μg of a 250 μg/100 solution), subjected to 30 minutes of bilateral renal artery clamping one hour later, and examined after 24 hours of reflow. […] All subsequent studies as reported here were carried out using the 250 μg dose of NGAL. […]
Kidney sections of 4 microns were stained with hematoxylin-eosin and scored for histopathologic damage to the tubules in a blinded fashion, as previously described by Yokota N. et al., Am J Physiol Renal Physiol 285: F319-F325, 2003 and Kjeldsen L. et al., Biochim Biophys Acta 1482: 272-283, 2000. Each parameter was assessed in five high power fields (40×) in the inner cortex and outer medullary regions (where the tubular damage was most evident), and an average determined for each section. […] Each parameter was scored on a scale of 0 to 4, ranging from none (O), mild (1), moderate (2), severe (3), to very severe/extensive (4).

tubule epithelial cells = assay: TUNEL apoptosis assay on kidney sections (nuclei per 100 cells); format: in vivo, mice; details: 24 h reflow
Method: Purified endotoxin-free NGAL was administered either intravenously into mice via tail vein injections, subcutaneously, or intraperitoneally. In preliminary studies, animals were treated with three different concentrations of NGAL (50, 100, or 250 μg of a 250 μg/100 solution), subjected to 30 minutes of bilateral renal artery clamping one hour later, and examined after 24 hours of reflow. […] All subsequent studies as reported here were carried out using the 250 μg dose of NGAL. Comparisons were made between five different animal groups: non-ischemic controls (n=8), ischemic controls pre-treated with saline alone (n=8), NGAL pre-treated one hour prior to renal artery clamping (n=6), NGAL treated during renal artery clamping (n=6), and NGAL treated one hour post renal artery clamping (n=6).
For the TUNEL assay to detect apoptotic nuclei, we utilized the ApoAlert DNA Fragmentation Assay Kit (Clontech). Paraffin sections were deparaffinized through zylene and descending grades of ethanol, fixed with 4% formaldehyde/PBS for 30 min at 4° C., permeabilized with proteinase K at room temperature for 15 min and 0.2% triton X-100/PBS for 15 min at 4° C., and incubated with a mixture of nucleotides and TdT enzyme for 60 min at 37° C. The reaction was terminated with 2×SSC, the sections washed with PBS, and mounted with Crystal/mount (Biomeda, Foster City, Calif.). TUNEL-positive apoptotic nuclei were detected by visualization with a fluorescent microscope. […] Merely TUNEL positive cells, in the absence of morphologic criteria, were not considered apoptotic. Slides were examined in a blinded fashion, and apoptosis was quantified by counting the number of TUNEL positive nuclei per 100 cells counted in an average of five high power (40×) fields in each section.

[2] = test system: mouse model of ATN or ischemia/reperfusion injury; assay: Mouse model of ATN (30 min clamp, contralateral nephrectomy): plasma creatinine; format: in vivo, mice
Method: Male C57BL/6 mice (20-25 gr; Charles River) were anesthetized with intraperitoneal pentobarbital (50 mg/kg) and placed on a heating pad under a warming light to maintain 37© core body temperature. Kidneys were exposed through an abdominal section and the right kidney was either removed or its vascular pedicle and ureter ligated. The vascular pedicle of the left kidney or both kidneys was clamped by a microaneurysm clip (Kent Scientific) for 30 minutes after right nephrectomy. This period of ischemia generated reproducible renal injury but minimized mortality. During the procedure, PBS (0.5 ml) was used to dampen the peritoneum. The animal was closed with 5-0 Nylon. Saline, NGAL, retinol-loaded retinol binding protein (RBP), enterochelin, or desferroxamine mesylate (DFO) were injected into the peritoneum or subcutaneously 15 min. prior to ischemia or 1-2 hr after reperfusion.
After 6 or 24 hr of reperfusion, heparinized plasma, urine and kidney samples were obtained to measure NGAL (polyclonal 1:500), Heme oxygenase-1 (Stressgen, 1:2000), E-cadherin (BD Transduction Labs, 1:2000), N-cadherin (BD Transduction Labs, 1:3000) and GAPDH (Chemicon International, 1:3000) using immunoblots. Plasma was also used for creatinine and blood urea nitrogen colorimetric assays. Sagittal sections of the kidney were fixed in 4% formalin, or were snap frozen for mRNA and protein analysis. Paraffin-embedded sections (5 μm) were stained with hematoxylin-eosin or by an in situ kit (Fluorescein-TUNEL, Roche) for apoptotic nuclei or for total nuclei (Toprol, Molecular Probes). For cell proliferation analysis, BrdU was injected into the peritoneum 1 hour before sacrifice, and cryostat sections were stained with anti-BrdU (Roche) according to the manufacturer.

[3] = NGAL trafficking after intraperitoneal or subcutaneous injection; format: in vivo, mice
Description: Recombinant human and mouse GST-NGAL were expressed in BL21 or XL1-Blue strains of E. coli (Stratagene) with additional ferric sulfate (50 Micro Molar, Sigma-Aldrich Co.). NGAL was isolated using Glutathione Sepharose 4B beads (Amersham Biosciences), eluted by thrombin cleavage (Sigma-Aldrich Co.; St. Louis, Mo.) and then further purified by gel filtration (Superdex75, SMART system, Amersham Biosciences) and examined by Coomassie gels (Biorad). BL-21 derived NGAL was loaded with iron free or iron saturated enterochelin, a siderophore (EMC Microcollections) using a 5 fold molar excess. Unbound siderophore (0.7 KD) was removed by washing (Microcon YM-10) with PBS. To produce ^55Fe or gallium (Ga) loaded NGAL we incubated the iron-free enterochelin NGAL complex with equimolar ^55Fe (18mCi) or Ga in NaCl (150 mM) Hepes (20 mM; pH 7.4) and the complex was washed 3 times (10K filter). Iodobeads (Pierce) were used to label NGAL with ^125I and unincorporated ^125I was removed by gel filtration (PD-10 column) followed by extensive dialysis (7 kDa cut off membrane, Pierce) against PBS. Alexa-568 and fluorescein isothiocyanate (Molecular Probes) was coupled to NGAL, according to the manufacturer, and then extensively dialyzed. Protein concentration was determined by Coomassie gels in comparison with bovine serum albumin standard.
To detect delivery of NGAL to the kidney rNGAL (10 or 100 μg), Alexa 568-NGAL (100 μg), ^125I-NGAL ([…], 2×10^6 cpm), or ^55Fe loaded enterochelin-NGAL (10 μg, 1×10^6 cpm) was injected into the peritoneum and blood, urine, kidney and liver samples were obtained. NGAL was detected by immunoblot. Alexa-568 NGAL was detected by confocal microscopy (LSM Meta Detector) and NGAL mediated iron trafficking was detected by scintillation counter and by light microscopic radioautography of Epon embedded kidneys. Slides were exposed to emulsion (Polyscience) for 1 week and then developed with Microdol and counterstained with Toluidine blue. To detect lysosomes in the proximal tubule, mice were injected with Fluorescein Dextran (46 kD; 0.5 mg; Sigma) 24 hours before Alexa 568 NGAL injections. LAMP1 (Santa Cruz) was detected in cryostat sections of 4% paraformaldehyde fixed kidneys.

B1: NGAL: Purified endotoxin-free recombinant NGAL expressed as GST fusion protein in bacteria, thrombin cleaved (protein, UniProt P80188 21-198, looked up)
Neutrophil …: QDSTSDLIPAPPLSKVPLQQNFQDNQFQGKWYVVGLAGNAILREDKDPQKMYATIYELKEDKSYNVTSVLFRKKKCDYWIRTFVPGCQPGEFTLGNIKSYPGLTSYLVRVVSTNYNQHAMVFFKKVSQNREYFKITLYGRTKELTSELKENFIRFSKSLGLPENHIVFPVPIDQCIDG
- histopathologic score (dilatation, casts, cell necrosis; scale 0 to 4) [1]: significantly improved score
- apoptotic tubule epithelial cells (TUNEL-positive nuclei per hundred cells) (tubule epithelial cells; NGAL during ischemia): 7.6%±0.8
- apoptotic tubule epithelial cells (TUNEL-positive nuclei per hundred cells) (tubule epithelial cells; NGAL one hour after ischemia): 8.5%±0.8
- apoptotic tubule epithelial cells (TUNEL-positive nuclei per hundred cells) (tubule epithelial cells; NGAL one hour before ischemia, saline 12.6%±2.2): 6.7%±1.6
- plasma creatinine 24 hours after reperfusion ([2]; 1 μg NGAL (not protective)): 3.09 ± 0.11 mg/dL
- plasma creatinine 24 hours after reperfusion ([2]; 100 μg NGAL 15 minutes before clamping, untreated 3.16±0.17): 1.18 ± 0.18 mg/dL
- plasma creatinine ([2]; NGAL 2 hours after ischemia (no protective effect)): 3.12 ± 0.35 mg/dL
- plasma creatinine 24 hours after reperfusion ([2]; NGAL one hour after reperfusion): 1.60 ± 0.28 mg/dL
- protection against ATN (creatinine, FIG. 17A) ([2]; administered later than one hour after ischemia): ineffective
- time to appearance of NGAL in the urine ([3]; injection of 100 μg exogenous NGAL): ≤ 10 min
- injected NGAL recovered in the urine in the first hour ([3]; mouse, in vivo): 0.1-0.2%
